B1: CD2z CSR: chimeric stimulatory receptor: CD2 signal peptide, extracellular, transmembrane and cytoplasmic domains with CD3z intracellular domain (SEQ ID NO: 17062) (protein)
chain: MSFPCKFVASFLLIFNVSSKGAVSKEITNALETWGALGQDINLDIPSFQMSDDIDDIKWEKTSDKKKIAQFRKEKETFKEKDTYKLFKNGTLKIKHLKTDDQDIYKVSIYDTKGKNVLEKIFDLKIQERVSKPKISWTCINTTLTCEVMNGTDPELNLYQDGKHLKLSQRVITHKWTTSLSAKFKCTAGNKVSKESSVEPVSCPEKGLDIYLIIGICGGGSLLMVFVALLVFYITKRKKQRSRRNDEELETRAHRVATEERGRKPHQIPASTPQNPATSQHPPPPPGHRSQAPSHRPPPPGHRVQHQPQKRPPAPSGTQVHQQKGPPLPRPRVQPKPPHGAAENSLSPSSNRVKFSRSADAPAYKQGQNQLYNELNLGRREEYDVLDKRRGRDPEMGGKPRRKNPQEGLYNELQKDKMAEAYSEIGMKGERRRGKGHDGLYQGLSTATKDTYDALHMQALPPR

Key:
[1] = system: CD45RA, CD45RO, and CD62L; experiment: Memory phenotype by surface CD45RA, CD45RO and CD62L staining; type: cell-based, human; settings: WT and DKO CAR-T cells
Text: WT CAR-T cells, DKO CAR-T cells, DKO CAR-T cells+CD2z, and DKO CAR-T cells+CD28z were stained for expression of surface CD45RA, CD45RO, and CD62L to define Tscm, Tcm, Tem, and Teff cells; Tscm (CD45RA^+CD45RO^−CD62L^+), Tcm (CD45RA^−CD45RO^+CD62L^+), Tem (CD45RA^−CD45RO^+CD62L^−), Teff (CD45RA^+CD45RO^−CD62L^−). […] This phenotype may have a negative impact on the in vivo functionality of these CAR T cells since they appear to be more differentiated.
Allo CAR-T cells with no CSR and Allo CAR-Ts with CSR that was delivered either stably or transiently were stained for expression of surface CD45RA, CD45RO, and CD62L to define Tscm, Tcm, Tem, and Teff cells; Tscm (CD45RA^+CD45RO^−CD62L), Tcm (CD45RA^−CD45RO^+CD62L^+), Tem (CD45RA^−CD45RO^+CD62L^−), Teff ([…]CD62L^−). All samples were performed in duplicate, and data is shown in bar graph where error bars represent standard deviation.

CAR-T cells = experiment: Expansion of CAR-T cells with CSR delivered transiently by mRNA or stably by piggyBac; type: cell-based, human; settings: for expansion of CAR-T cells (total live CAR-T cells): 19 day culture, BCMA CAR, CSR transient or stable
Text: FIG. 18 is a graph showing that delivery of CSR enhances the expansion of CAR-T cells. CSRs were delivered to CAR-T cells either transiently by mRNA or stably by piggyBac®. Pan T cells isolated from the blood of a normal donor were genetically modified using the piggyBac® DNA modification system and the standard Poseida process. Cells were co-electroporated in a single reaction with mRNA encoding the Super piggyBac™ transposase enzyme (SPB), a transposon encoding a BCMA CAR and selection gene, along with an additional mRNA encoding a CSR (either CD28z or CD2z; resulting in transient expression) or a CD19 mRNA control, or, with a transposon encoding a BCMA CAR, selection gene and a CSR (either CD28z or CD2z; resulting in stable expression). The cells were subsequently stimulated with agonist mAbs anti-CD2, anti-CD3 and anti-CD28, and were later selected for genetic modification over the course of a 19 day culture period. At the end of the initial culture period all T cells expressed the CAR, indicating successful selection for genetically-modified cells (data not shown). Bars represent total live CAR-T cells in well and numbers indicate fold-enhancement of expansion above CAR-T cells produced in the absence of a CSR or a CD19 mRNA control.
Pan T cells isolated from healthy donor blood were genetically modified using the piggyBac® DNA modification system in combination with the Cas-CLOVER™ gene-editing system (CC) for the production of allogeneic (Allo) CAR-T cells, or without CC gene-editing for the production of autologous (Auto) CAR-T cells; auto CAR-T cells were produced by nucleofection of an mRNA encoding the super piggyBac® transposase enzyme (SPB) and a transposon encoding a CAR, selection gene and a safety switch. […] Following EP, all cells were subsequently stimulated with a cocktail of agonist mAbs anti-CD2, anti-CD3 and anti-CD28, and were later selected for genetic modification over the course of a 19-day culture period using the selection gene. […]

eK562-Luc.BCMA = experiment: Luciferase killing assay, 48 hour co-culture; type: cell-based; settings: 10:1, 3:1, 1:1 E:T
Experimental: After secondary expansion, cells (Mock (WT T cells), WT CAR-T cells, DKO CAR-T cells, DKO CAR-T cells+CD2z CSR, and DKO CAR-T cells+CD28z CSR) were co-cultured with engineered K562-BCMA-Luciferase (eK562-Luc.BCMA) or negative control line K562-PSMA-Luciferase (eK562-Luc.PSMA) for 48 hours at 10:1, 3:1, or 1:1 E:T ratios. Luciferase signal was measured to determine cytotoxicity. Killing of eK562-Luc.PSMA is shown in dotted lines, while killing of eK562-Luc.BCMA is shown in solid lines. All CAR^+ T cells expressed an anti-BCMA specific CAR.
CSRs were delivered to CAR-T cells either transiently by mRNA or stably by piggyBac®. Pan T cells isolated from the blood of a normal donor were genetically modified using the piggyBac® DNA modification system and the standard Poseida process. Cells were co-electroporated in a single reaction with mRNA encoding the Super piggyBac™ transposase enzyme (SPB), a transposon encoding a BCMA CAR and selection gene, along with an additional mRNA encoding a CSR (either CD28z or CD2z; resulting in transient expression), or, with a transposon encoding a BCMA CAR, selection gene and a CSR (either CD28z or CD2z; resulting in stable expression). The cells were subsequently stimulated with agonist mAbs anti-CD2, anti-CD3 and anti-CD28, and were later selected for genetic modification over the course of a 19 day culture period. At the end of the initial culture period all T cells expressed the CAR, indicating successful selection for genetically-modified cells (data not shown). To assess CAR-T cell ability to kill, cells were co-cultured with engineered K562-BCMA-Luciferase (eK562-Luc.BCMA) or negative control line K562-Luciferase (eK562-Luc) for 48 hours at 10:1, 3:1, or 1:1 E:T ratios. Luciferase signal was measured to determine cytotoxicity. Killing of eK562-Luc is shown in bar graph on left, while killing of eK562-Luc.BCMA is shown in bar graph on right.

Pan T cells = experiment: Surface expression of CSR and cellular activation (FSC-A, CD69) after mRNA electroporation of T cells; type: cell-based, human; settings: for cellular activation (FSC-A, CD69): absence of exogenous stimulation; for surface expression by flow cytometry: two days after electroporation of 10 μg mRNA
Experimental: Pan T cells from normal blood donors were stimulated with anti-CD3/anti-CD28 beads in standard T cell culture media, then rested. These cells were then electroporated (BTX ECM 830 electroporator @ 500V for 700 μs) with 10 μg of mRNA encoding either CD28 CSR, CD2 CSR, or wild-type CD19 control. Two days later the electroporated cells were examined by flow cytometry for surface-expression of each molecule and data are shown as stacked histograms. In addition, cell size (FSC-A) and CD69 expression was evaluated as a possible indication of cellular activation above the Mock electroporated control cells.

[2] = CAR-T cells with transient (mRNA) or stable (piggyBac) CSR

Row | Molecule | memory phenotype (Tscm, Tcm, Tem, Teff) [1] | expansion of CAR-T cells (total live CAR-T cells) (CAR-T cells) | in vitro cytotoxicity (luciferase signal) (eK562-Luc.BCMA; [2]) | in vitro cytotoxicity (luciferase signal) (eK562-Luc.BCMA; DKO CAR-T cells) | cellular activation (FSC-A, CD69) (Pan T cells) | surface expression by flow cytometry (Pan T cells) | expansion of CAR-T cells compared to CAR-T cells produced without a CSR (CAR-T cells; 19-day culture, Auto and Allo CAR-T, CSR stable or mRNA 5, 10, 20 μg)
1 | CD28z CSR: chimeric stimulatory receptor: CD28 signal peptide, extracellular, transmembrane and cytoplasmic domains with CD3z intracellular domain (SEQ ID NO: 17060) | significantly more differentiated, favoring Tcm and Tem cells | a greater degree of expansion | not significantly affected | not significantly affected | did not intrinsically activate the cells | Increased surface expression | –
2 | B1 | comprised predominantly of exceptionally high levels of favorable Tscm and Tcm cells | a greater degree of expansion | not significantly affected | not significantly affected | did not intrinsically activate the cells | Increased surface expression | a greater degree of expansion

From patent publication US20220389077A1, “ALLOGENEIC CELL COMPOSITIONS AND METHODS OF USE” (Poseida Therapeutics, Inc., priority 2018, published 2022)
